According to paper PMC4570195, “Self-sorting heterodimeric coiled coil peptides with defined and tuneable self-assembly properties” (Scientific Reports, 2015):
Cy5 = fluorescent dye, coupled as Cy5-NHS

T1: KV (N-terminal acetylation)
T1 construct: de novo designed 28-residue coiled coil peptide, four heptads (gabcdef); also called KV peptide; source: synthetic peptide (solid phase, Fmoc), purified by reverse phase HPLC
T1 peptide: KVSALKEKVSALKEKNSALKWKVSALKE

T2: EV-Cy5 (Cy5 at the N-terminus (Cy5-NHS used instead of acetic anhydride))
T2 construct: de novo designed 28-residue coiled coil peptide; also called EV modified at the N-terminus with Cy5; source: synthetic peptide (solid phase, Fmoc), purified by reverse phase HPLC
T2 peptide: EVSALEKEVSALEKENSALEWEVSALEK

B1: EV (peptide)
peptide: Ac-EVSALEKEVSALEKENSALEWEVSALEK-NH2
notes: de novo designed 28-residue coiled coil peptide, four heptads (gabcdef); also called EV peptide; source: synthetic peptide (solid phase, Fmoc), purified by reverse phase HPLC
B2: KI (peptide)
peptide: Ac-KIAALKEKIAALKEKNAALKWKIAALKE-NH2
notes: de novo designed 28-residue coiled coil peptide, four heptads (gabcdef); also called KI peptide; source: synthetic peptide (solid phase, Fmoc), purified by reverse phase HPLC
B3: EI (peptide)
peptide: Ac-EIAALEKEIAALEKENAALEWEIAALEK-NH2
notes: de novo designed 28-residue coiled coil peptide, four heptads (gabcdef); also called EI peptide; source: synthetic peptide (solid phase, Fmoc), purified by reverse phase HPLC

Experiments:
EV-Cy5 [1] = test: Fluorescence of EV-Cy5 upon addition of EI and KI
Source text: To further experimentally verify that the peptides undergo thermodynamic self-sorting we modified EV at the N-terminus with a fluorescent dye (Cy5). Although not considered very environmentally sensitive, cyanine dyes tethered to the terminus of single-stranded DNA display significant changes in fluorescence quantum yield, emission lifetime, and fluorescence anisotropy decay upon hybridization with a complementary DNA strand[34][35]. […] This change in binding partner was also supported by simulations (Fig. 6b). The smaller amount of monomeric EV-Cy5 seen in the experiment after addition of EI is presumably an effect of the kinetics involved in the exchange of partners in the heterodimer. The simulations were run until equilibrium whereas the experimental data was acquired after 30 minutes incubation and the exchange was likely not fully completed within this time frame.
Figure 6 (a) Fluorescence spectra and (b) change in normalized intensity at 667 nm for EV-Cy5 upon addition of EI and KI. Addition of the complimentary peptide KI, thus forming EVKI dimers, results in an increase in fluorescence intensity. Subsequent addition of EI reduces the fluorescence intensity due to formation of EIKI dimers, leaving free EV-Cy5. […]
Fmoc-protected amino acids were purchased from Iris Biotech GmbH. […] Peptide concentrations were determined by UV absorbance (ε280(Trp) = 5690 M^−1 cm^−1). […]

KI [2] = target: B2; test: circular dichroism, thermal denaturation; Kd at 75 °C, as used for the self-sorting simulations; conditions: both partners purified
KI [3] = target: B2; test: circular dichroism, thermal denaturation; thermal denaturation at different peptide monomer concentrations, Tm related to Kd; Kd at 20 °C; 10 mM phosphate buffer pH 7; conditions: both partners purified
KV [4] = target: T1, KV; test: as above; conditions: both partners purified
KI [5] = target: B2; test: method of continuous variation by circular dichroism; molar ratio of each monomer varied, ellipticity at 222 nm measured; conditions: both partners purified
KV [6] = target: T1, KV; test: as above; conditions: both partners purified
EV-Cy5 [7] = target: T2, EV-Cy5; test: fluorescence emission intensity of a Cy5-labelled peptide; EV-Cy5 5 μM, KI 5 μM added, then EI 5 μM; 30 minutes incubation; intensity at 667 nm; conditions: both partners purified
KV [8] = target: T1, KV; test: circular dichroism, thermal denaturation; Kd at 75 °C, as used for the self-sorting simulations; conditions: both partners purified

| Molecule | change in fluorescence emission intensity, EI added prior to KI (EV-Cy5 [1]; EI added to EV-Cy5 prior to KI, otherwise identical conditions) | change in fluorescence emission intensity (EV-Cy5 [1]; EV-Cy5 5 μM, KI 5 μM then EI 5 μM, 30 min incubation, 667 nm, PB pH 7) | Kd (KI [2]) | Kd (KI [3]) | Kd (KV [4]) | stoichiometry N (KI [5]) | stoichiometry N (KV [6]) | binding result (EV-Cy5 [7]) | Kd (KV [8]) |
| --- | --- | --- | --- | --- | --- | --- | --- | --- | --- |
| EV-Cy5: EV modified at the N-terminus with a fluorescent dye (Cy5) (Cy5-EVSALEKEVSALEKENSALEWEVSALEK-NH2) | a slight decrease in fluorescence intensity | a drop in emission intensity, close to the original intensity of the monomeric EV-Cy5 |  |  |  |  |  |  |  |
| B1 |  |  | > 200 nM | 85 nM | 1400 nM | 1 | 1 |  |  |
| B2 |  |  |  |  |  |  |  | binds |  |
| B3 |  |  |  | < 0.1 nM | 72 nM | 1 | 1 |  | > 200 nM |
